{"source": "patent US20250325640A1", "target": "CD20 on Daudi cells (UniProt P11836)", "assay": "cell-based or functional assay", "data": [{"substance": "Rituximab (anti-CD20 IgG, Mabthera) (antibody)", "values": [{"measurement": "complement-dependent cytotoxicity (CCK8 cell survival, baby rabbit serum) (% of cells dead)", "value": 70}]}]}
